These results are taken from paper PMC3050729, “Novel computational analysis of protein binding array data identifies direct targets of Nkx2.2 in the pancreas”.

The target in this series is T1, Nkx2.2 (in vitro translated) (UniProt P42586 1-273).
T1 sequence: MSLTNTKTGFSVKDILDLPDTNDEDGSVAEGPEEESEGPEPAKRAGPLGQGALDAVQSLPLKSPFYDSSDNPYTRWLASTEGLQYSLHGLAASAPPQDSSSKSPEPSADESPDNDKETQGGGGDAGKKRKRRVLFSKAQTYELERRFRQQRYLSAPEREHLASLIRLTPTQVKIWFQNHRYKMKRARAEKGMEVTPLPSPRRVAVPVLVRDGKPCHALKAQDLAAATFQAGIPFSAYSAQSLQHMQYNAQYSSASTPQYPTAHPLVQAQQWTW
Briefly: EMSA; EMSA as in ref 20; buffer, salt, pH and temperature not given. The settings on record: protein: ivt, label: 32P-dCTP Klenow fill-in, filled in with Klenow. For orientation: In EMSA bound probe runs differently from free probe, usually more slowly.

B1: Ins2 -144 (dsDNA)
DNA 1: TGCTTTCTGCAGACCTAGCACCAGGCAAGTGTTTGGAAACTGCAGCT
DNA 2: CTGAAGCTGCAGTTTCCAAACACTTGCCTGGTGCTAGGTCTGCAGAA
For the molecule B1, the binding result (5' overhangs) is reported as “no binding”.

B2: Nkx2.2 AAGT consensus (dsDNA)
DNA 1: TCGACGCGATTTTTCAAGTGGTTTTCAGTAGC
DNA 2: AGCTGCTACTGAAAACCACTTGAAAAATCGCG
In the case of B2, the binding result (5' overhang 4 nt) is “binds”.

B3: Nkx6.2 +1669 (+669 in probe list) (dsDNA)
DNA 1: CCGAATCCCGCGCGGGCCACTTACCGGAGCCGGCCAGTCGCGGGTCCCTC
DNA 2: CTGGAGGGACCCGCGACTGGCCGGCTCCGGTAAGTGGCCCGCGCGGGATT
For B3, the binding result (5' overhangs) is reported as “no binding”.

B4: Gcg -1080 (dsDNA)
DNA 1: AGACCATTGAAACAACTGGAGGAGTACTCTGACTGAACTTAATTCTTCAT
DNA 2: AGAATGAAGAATTAAGTTCAGTCAGAGTACTCCTCCAGTTGTTTCAATGG
As for B4, the binding result (5' overhangs) was “no binding”.

B5: Ins2 -477 (Ins -471 in probe list) (dsDNA)
DNA 1: AAGCAGAACTCAGGCAGCAAGGTACTTAATGGTCCCTCCTTCTCCATC
DNA 2: AGAGATGGAGAAGGAGGGACCATTAAGTACCTTGCTGCCTGAGTTCT
Consider B5, for which the binding result (5' overhangs) is on record as “binds”.
